The results in this text go back to article PMC8225329, “Molecular and Mechanistic Characterization of PddB, the First PLP-Independent 2,4-Diaminobutyric Acid Racemase Discovered in an Actinobacterial D-Amino Acid Homopolymer Biosynthesis” (Frontiers in Microbiology, 2021).

Substrate in series [1]: NCC[C@H](N)C(=O)O
Kind of series: initial-velocity racemase assay, FDLA (Marfey) LC-MS; Lineweaver-Burk. The class given is biochemical, Streptoalloteichus hindustanus. The note with it: L to D direction, no cofactor, 100 mM TAPS-NaOH pH 8.5, 30°C. The text has this:
(§1) initial-velocity racemase assay, FDLA (Marfey) LC-MS; Lineweaver-Burk on PddB

Substrate in series [2]: NCC[C@@H](N)C(=O)O
The series is described as above. The class given is biochemical, Streptoalloteichus hindustanus. As to conditions: D to L direction, no cofactor, 100 mM TAPS-NaOH pH 8.5, 30°C.
Text: as §1

B1: PddB (Streptoalloteichus hindustanus) (protein)
chain: MSDQHNQVLDSELTAFRERVVEGVRFDTLRFCIMHGDGNVIMIVDERLSGLAAESVTSTLARELCQSFTVPKVDGVAFVRPTVSPLRMTYFERDGTHAQMCGNALRCLTRYGVERGYLSTEDSVETDDGVKRVSFVDGEARAALGPGREYQQVRDNWYFAFSGLPHLVVVMDDLDAFNAVNVRVDGAKLAHDEELCRQLNHPEGLHVNYLHRGEDHIAIRTFEVGVEDETKACGTGVAATGYIAHRAWGMPYPLRVRVPGGVMTAEDGEHGLTISGVTGYLFTEDETPVANVFQRSVL
notes: full length, C-terminal His6 tag, pET-21b(+), E. coli Rosetta 2 (DE3), Ni-NTA; 33 kDa; monomer; C-terminal domain given as 163-295
By Km is commonly meant the concentration of substrate that gives half-maximal velocity. What is called Vmax is the rate approached at saturating substrate. As usually defined, the kcat is the number of substrate molecules converted per active site and unit of time at saturation. A word on the kcat/Km: it is the turnover number divided by the Michaelis constant. Regarding B1, in series [1], the Km is 10.1 ± 1.9 mM, the maximal velocity (Vmax) amounted to 210 µmol/min/mg, the Vmax/Km was 20800 µL/min/mg and the turnover number (kcat) was 116 ± 12 s⁻¹. The specificity constant (kcat/Km) in series [1] worked out at 11400 M⁻¹ s⁻¹. Further, in series [2], the Michaelis constant (Km) came out at 6.1 ± 1.0 mM, the maximal velocity (Vmax) worked out at 136 µmol/min/mg, the Vmax/Km was determined as 22200 µL/min/mg and the kcat was 75 ± 5 s⁻¹. Besides, in series [2], the specificity constant (kcat/Km) came to 12200 M⁻¹ s⁻¹.
